Source: patent publication US20220323445A1, “REDUCING IMMUNOGENICITY TO PEGLOTICASE” (Horizon Therapeutics Ireland DAC, priority 2020, published 2022)

Test system: serum uric acid (sUA)
Assay: Serum uric acid (sUA) levels and sUA responders, open-label study of pegloticase with MTX (NCT03635957)
Format: in vivo, human
Procedure: The primary objective is to estimate the response rate during Month 6 (Weeks 20, 22, and 24), as measured by the sustained normalization of serum uric acid (SUA) to <6 mg/dL for at least 80% of the time during Month 6 in subjects receiving KXX with MTX.
The primary efficacy outcome endpoint is the sustained normalization of SUA to <6 mg/dL for at least 80% of the time during month 6 (weeks 20, 22, and 24) in subjects receiving KXX with MTX. This is slightly below the urate solubility threshold and this threshold has been the accepted standard for nearly all modern gout trials. Participants who achieve this endpoint were classified as “responders.” Serum uric acid (SUA) responders may also be defined as participants achieving and maintaining SUA <6 mg/dL for at least 80% of the time during Month 6 (Weeks 20, 22, and 24).
Blood samples may be collected prior to each pegloticase infusion for measurement of SUA levels using the Beckman Coulter AU System Uric Acid procedure. Participants were declared “non-responders” if there were SUA measures >6 mg/dL at 2 consecutive study visits beginning with the week 2 visit. […] If the SUA goal is not maintained before or at the 12-week mark, it was assumed that the participant had developed clinically relevant anti-pegloticase antibody and they received no further infusions. This assumption and subsequent discontinuation of pegloticase was consistent with the protocol of large phase III randomized controlled trials and the product label. A formal stopping rule was 2 occasions of SUA levels of greater than 6 mg/dL.
Clinical Chemistry—Blood samples were collected prior to each pegloticase infusion for measurement of SUA levels (primary efficacy parameter) using the Beckman Coulter AU System Uric Acid procedure. In this procedure uric acid is converted to hydrogen peroxide. Hydrogen peroxide reacts with reagent to produce a chromophore which is read bichromatically at 660/800 nm. The amount of dye formed is proportional to the uric acid concentration in the sample.
Serum samples for measurement of SUA levels were collected at the Screening Visit, the Week −4 Visit (prior to the first dose of MTX), and the Week −2 Visit during the MTX Run-in Period; within 48 hours prior to each pegloticase infusion and after the end of each pegloticase infusion prior to discharge from the site during the Pegloticase+IMM Period; at the non-infusion Week 52/End of Study/Early Termination Visits and at the Post Treatment 3 and 6 Month Follow-up Visits. Additional serum samples for SUA levels were collected at optional non-infusion (Frequent Sampling) Visits at Weeks 1 and 7. […] Subjects with SUA level >6 mg/dL at 2 consecutive visits beginning at Week 2 visit discontinued treatment, completed the End of Pegloticase Infusion Visit procedures within 2 weeks and continued the subject visits according to the protocol (without treatment).
Efficacy analyses were performed using the modified intention-to-treat (mITT) population, defined as all enrolled subjects who received ≥1 dose of pegloticase. The proportion of Month 6 responders was summarized, along with a 95% confidence interval for the proportion. The proportion of Month 3 and overall (Months 3 and 6 combined) responders was analyzed similarly.
A subject was declared a non-responder if the subject had SUA level >6 mg/dL at 2 consecutive study visits beginning with the Week 2 Visit. In addition, a subject who withdraws from study treatment for any reason after the first dose of pegloticase in the KXX+MTX Period and prior to Month 6 (for the primary endpoint) or Month 3 (for the secondary endpoint) was considered a non-responder if SUA values were not collected at the planned time points.
Patients were administered oral MTX (15 mg/week) and folate (1 mg/day) 4 weeks prior to the first pegloticase infusion (Day 1) and throughout the pegloticase treatment period. […]

[1] = Week 34 - Pre-Infusion, Month 6 sUA Responders
[2] = Week 34 - Pre-Infusion, mITT, n=10
[3] = Week 36 - Post-Infusion, Month 6 sUA Responders
[4] = Week 36 - Post-Infusion, mITT, n=6
[5] = Week 36 - Pre-Infusion, Month 6 sUA Responders
[6] = Week 36 - Pre-Infusion, mITT, n=9
[7] = Week 38 - Pre-Infusion, Month 6 sUA Responders
[8] = Week 38 - Pre-Infusion, mITT, n=5
[9] = Week 40 - Pre-Infusion, Month 6 sUA Responders
[10] = Week 40 - Pre-Infusion, mITT, n=3
[11] = Week 42 - Pre-Infusion, Month 6 sUA Responders
[12] = Week 42 - Pre-Infusion, mITT, n=3
[13] = Week 44 - Pre-Infusion, Month 6 sUA Responders

B1: pegloticase (protein)
chain: TYKKNDEVEFVRTGYGKDMIKVLHIQRDGKYHSIKEVATTVQLTLSSKKDYLHGDNSDVIPTDTIKNTVNVLAKFKGIKSIETFAVTICEHFLSSFKHVIRAQVYVEEVPWKRFEKNGVKHVHAFIYTPTGTHFCEVEQIRNGPPVIHSGIKDLKVLKTTQSGFEGFIKDQFTTLPEVKDRCFATQVYCKWRYHQGRDVDFEATWDTVRSIVLQKFAGPYDKGEYSPSVQKTLYDIQVLTLGQVPEIEDMEISLPNIHYLNIDMSKMGLINKEEVLLPLDNPYGKITGTVKRKLSSRL
modifications: monomethoxy PEG conjugated; Krystexxa Sequence
notes: covalent conjugate of uricase produced by a genetically modified strain of Escherichia coli and monomethoxypoly (ethylene glycol)
sUA < 6 mg/dL, % [1]: (100%)
sUA Change from Baseline, Mean [1]: -8.47 mg/dL
sUA Change from Baseline, Median [1]: -7.95 mg/dL
sUA Observed, Mean [1]: 0.82 mg/dL
sUA Observed, Median [1]: 0.30 mg/dL
sUA < 6 mg/dL, n (%) [2]: 10 (100%)
sUA Change from Baseline, Mean (SD) [2]: −8.47 (3.248) mg/dL
sUA Change from Baseline, Median [2]: -7.95 mg/dL
sUA Observed, Mean (SD) [2]: 0.82 (1.046) mg/dL
sUA Observed, Median [2]: 0.30 mg/dL
sUA < 6 mg/dL, % [3]: (100%)
sUA Change from Baseline, Mean [3]: -9.38 mg/dL
sUA Change from Baseline, Median [3]: -9.20 mg/dL
sUA Observed, Mean [3]: 0.30 mg/dL
sUA Observed, Median [3]: 0.30 mg/dL
sUA < 6 mg/dL, n (%) [4]: 6 (100%)
sUA Change from Baseline, Mean (SD) [4]: −9.38 (3.799) mg/dL
sUA Change from Baseline, Median [4]: -9.20 mg/dL
sUA Observed, Mean (SD) [4]: 0.30 (0.000) mg/dL
sUA Observed, Median [4]: 0.30 mg/dL
sUA < 6 mg/dL, % [5]: ( 88.9%)
sUA Change from Baseline, Mean [5]: -7.90 mg/dL
sUA Change from Baseline, Median [5]: -8.60 mg/dL
sUA Observed, Mean [5]: 1.58 mg/dL
sUA Observed, Median [5]: 0.30 mg/dL
sUA < 6 mg/dL, n (%) [6]: 8 (88.9%)
sUA Change from Baseline, Mean (SD) [6]: −7.90 (4.094) mg/dL
sUA Change from Baseline, Median [6]: -8.60 mg/dL
sUA Observed, Mean (SD) [6]: 1.58 (2.425) mg/dL
sUA Observed, Median [6]: 0.30 mg/dL
sUA < 6 mg/dL, % [7]: (100%)
sUA Change from Baseline, Mean [7]: -8.41 mg/dL
sUA Change from Baseline, Median [7]: -8.60 mg/dL
sUA Observed, Mean [7]: 0.93 mg/dL
sUA Observed, Median [7]: 0.30 mg/dL
sUA < 6 mg/dL, n (%) [8]: 5 (100%)
sUA Change from Baseline, Mean (SD) [8]: −8.41 (5.229) mg/dL
sUA Change from Baseline, Median [8]: -8.60 mg/dL
sUA Observed, Mean (SD) [8]: 0.93 (1.583) mg/dL
sUA Observed, Median [8]: 0.30 mg/dL
sUA < 6 mg/dL, % [9]: (100%)
sUA Change from Baseline, Mean [9]: -11.30 mg/dL
sUA Change from Baseline, Median [9]: -9.80 mg/dL
sUA Observed, Mean [9]: 0.30 mg/dL
sUA Observed, Median [9]: 0.30 mg/dL
sUA < 6 mg/dL, n (%) [10]: 3 (100%)
sUA Change from Baseline, Mean (SD) [10]: −11.30 (3.686) mg/dL
sUA Change from Baseline, Median [10]: -9.80 mg/dL
sUA Observed, Mean (SD) [10]: 0.30 (0.000) mg/dL
sUA Observed, Median [10]: 0.30 mg/dL
sUA < 6 mg/dL, % [11]: (100%)
sUA Change from Baseline, Mean [11]: -11.30 mg/dL
sUA Change from Baseline, Median [11]: -9.80 mg/dL
sUA Observed, Mean [11]: 0.30 mg/dL
sUA Observed, Median [11]: 0.30 mg/dL
sUA < 6 mg/dL, n (%) [12]: 3 (100%)
sUA Change from Baseline, Mean (SD) [12]: −11.30 (3.686) mg/dL
sUA Change from Baseline, Median [12]: -9.80 mg/dL
sUA Observed, Mean (SD) [12]: 0.30 (0.000) mg/dL
sUA Observed, Median [12]: 0.30 mg/dL
sUA < 6 mg/dL, % [13]: (100%)
sUA Change from Baseline, Mean [13]: -10.55 mg/dL
sUA Change from Baseline, Median [13]: -9.80 mg/dL
sUA Observed, Mean [13]: 1.05 mg/dL
sUA Observed, Median [13]: 0.30 mg/dL
